The test addresses human TSHR (thyroid stimulating hormone receptor), full length, expressed in transfected CHO cells (human) (UniProt P16473). The experiment in a line: cell-based or functional assay.

B1: 5C9 IgG (antibody, from another filing, V domains shown)
VH: EVQLVESGGGLIQPGGSLRLSCAASGFTVSSNYMSWVRQAPGKGLEWVSVTYSGGSTSYADSVKGRFTISRDNSKNTLYLQMNSLRAEDTAVYYCARGGRYCSSISCYARSGCDYWGQGTLVTVSS
VL: AIQMTQSPSSLSASVGDRVTITCRASQSISNYLNWYQQKPGKAPKLLIYAASSLQSGVPSRFSGSGSGTDFTLTISSLQPEDFATYYCQQSYSSPSTTFGQGTKLEIK
For B1, the % Inhibition of K1-18 IgG stimulation; 10 ng/mL K1-18 IgG + 0.001 µg/mL 5C9 IgG was determined as 19%, the % Inhibition of K1-18 IgG stimulation; 10 ng/mL K1-18 IgG + 0.01 µg/mL 5C9 IgG was determined as 0%, the % Inhibition of K1-18 IgG stimulation; 10 ng/mL K1-18 IgG + 0.1 µg/mL 5C9 IgG is 91% and the % Inhibition of K1-18 IgG stimulation; 10 ng/mL K1-18 IgG + 0.5 µg/mL 5C9 IgG was 99%. For the same molecule, the % Inhibition of K1-18 IgG stimulation; 10 ng/mL K1-18 IgG + 1 µg/mL 5C9 IgG stood at 98%, the % Inhibition of K1-18 IgG stimulation; 10 ng/mL K1-18 IgG + 5 µg/mL 5C9 IgG was found to be 97%, the % Inhibition of K1-18 IgG stimulation; 10 ng/mL K1-18 IgG + 10 µg/mL 5C9 IgG was determined as 97% and the % Inhibition of K1-18 IgG stimulation; 10 ng/mL K1-18 IgG + 50 µg/mL 5C9 IgG came to 100%. Moreover, the % Inhibition of K1-18 IgG stimulation; 10 ng/mL K1-18 IgG + 100 µg/mL 5C9 IgG is 100%, the % Inhibition of K1-18 stimulation; 10 ng/mL K1-18 + 0.001 µg/mL 5C9 IgG was 0%, the % Inhibition of K1-18 stimulation; 10 ng/mL K1-18 + 0.01 µg/mL 5C9 IgG worked out at 25% and the % Inhibition of K1-18 stimulation; 10 ng/mL K1-18 + 0.1 µg/mL 5C9 IgG was determined as 99%. Further, the % Inhibition of K1-18 stimulation; 10 ng/mL K1-18 + 1 µg/mL 5C9 IgG was 99.4%, the % Inhibition of K1-18 stimulation; 10 ng/mL K1-18 + 10 µg/mL 5C9 IgG is 99.6% and the % Inhibition of K1-18 stimulation; 10 ng/mL K1-18 + 100 µg/mL 5C9 IgG was 98.7%.

(Values after patent US20110300138A1 (published 2011).)
